# Source: paper PMC8674125, “Analysis of Il36a induction by C/EBPβ via a half-CRE•C/EBP element in murine macrophages in dependence of its CpG methylation level”
# B1: FP_CREBmeth (methylated half-CRE•C/EBP Il36a) (dsDNA)
# DNA 1: CATCTTACGTCACCT
# DNA 2: AGGTGACGTAAGATG
# modifications: 5-methyl-C (mC) at position 8 of strand 1 and position 7 of strand 2
# B2: FP_CREB (unmethylated half-CRE•C/EBP Il36a) (dsDNA)
# DNA 1: CATCTTACGTCACCT
# DNA 2: AGGTGACGTAAGATG
# Target: C/EBPβ bZIP domain (mouse, UniProt P28033 221-296)
# Test: fluorescence polarization; FP: 5 nM DNA, 20 mM Tris-HCl pH 7.5, 150 mM NaCl, 5% glycerol, 0.5 mM TCEP, 0.1 mg/ml BSA, 30 min, temperature not stated; EMSA conditions as in earlier work, not given
# Settings: protein: recombinant; tags: N-terminal 6xHis (pET-45b); chain copies: 2; label: 5'-FAM on strand 1; blunt
# Sequence of C/EBPβ bZIP domain (P28033 221-296): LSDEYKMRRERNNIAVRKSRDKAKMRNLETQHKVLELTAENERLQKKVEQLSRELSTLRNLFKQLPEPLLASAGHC
row,Binder,Kd [nM]
1,B1,100 ± 30
2,B2,80 ± 30
